Experimental data: publication doi:10.1101/2023.01.25.525508

Legend:
[1] = biological target: T1, TIA1 full-length (fl TIA1) (Mus musculus, UniProt P52912 1-386); test: solid-state NMR
T1 sequence: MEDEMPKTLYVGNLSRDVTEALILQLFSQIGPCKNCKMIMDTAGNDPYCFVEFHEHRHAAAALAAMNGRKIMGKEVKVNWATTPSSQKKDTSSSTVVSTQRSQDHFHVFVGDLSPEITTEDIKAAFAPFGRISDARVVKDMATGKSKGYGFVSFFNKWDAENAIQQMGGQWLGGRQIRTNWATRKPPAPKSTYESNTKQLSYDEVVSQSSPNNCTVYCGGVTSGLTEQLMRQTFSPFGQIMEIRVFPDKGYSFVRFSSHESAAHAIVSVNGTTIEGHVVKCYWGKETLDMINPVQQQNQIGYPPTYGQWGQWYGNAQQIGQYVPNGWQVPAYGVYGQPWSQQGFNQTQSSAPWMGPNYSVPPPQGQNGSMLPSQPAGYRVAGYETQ

[2] = biological target: T1, TIA1 full-length (fl TIA1); test: ITC

Binder | binding result [1] | Kd [2] [nM]
TTTTTACTCCAAAAAAAATTTTTACTCCAAAAAAAATTTTTACTCC (ssDNA) [(TC1-A8)2-TC1] | binds | 
TTTTTACTCC (ssDNA) [TC1] |  | 263 ± 60
